Measured values reported in US20070224198A1 (GlaxoSmithKline, published 2007).

How the values were obtained:
[1] = biological target: T1, Recombinant human Factor IX (rhFIX, Genetics Institute) (human, UniProt P00740 47-461); assay: titration calorimetry, 37 C, 10 mM CaCl2
Experimental: (§1) The interactions between rhFIX and SB 249417 , BC2 and other humanized constructs were characterized by titration microcalorimetry, which measures binding interactions in solution from the intrinsic heat of binding. Nine injections of 106 uM FIX were made into the calorimeter containing 2 uM mAb SB 249417. Binding was detected in the first 4 injections as exothermic heats. At the last 5 injections the mAb binding sites were saturated with FIX and only background heats of mixing were observed. […] Nonlinear least squares analysis of the data yield the binding affinity.

[2] = biological target: T1, Recombinant human Factor IX (rhFIX, …); assay: SPR (BIAcore), calculated from kinetics
Experimental: (§2) The kinetics of Factor IX binding to SB 249417 was assessed by BIAcore analysis with antibody bound to an immobilized protein A surface. Recombinant human Factor IX (rhFIX, Genetics Institute) at 49 nM was used and measurements performed in the presence of 5 mM Ca²⁺.

[3] = biological target: T1, Recombinant human Factor IX (rhFIX, …); assay: titration calorimetry
Experimental: as §1

VII-A/IX = biological target: T2, VII-A/IX (UniProt P08709 61-105; P00740 93-461, limits assumed); assay: SPR (BiaCore 2000), BC2 coupled to the chip, construct injected, 5 mM CaCl2
T2 construct: The make-up is read from the label by analogy with IX-A/VII
Experimental: (§3) A library of chimeric constructs composed of sequences of Factor IX spliced into the framework of the homologous protein Factor VII was constructed and used to map the epitope for the Factor IX BC2 mAb. See Cheung et al., Thromb. Res. 80, 419-427 (1995). Binding was measured using a BiaCore 2000 surface plasmon resonance device. The BC2 antibody was coupled directly to the chip using the NHS/EDC reaction. Binding was measured by 2 min of contact time at 20 uL/min with 200 nM of each of the given constructs in 25 mM MOPS, pH 7.4, 0.15 M NaCl, 5 mM CaCl2. Dissociation was monitored for 3 min using the same buffer with no protein. No binding was detected to the wild type construct in the presence of 50 mM EDTA.

Plasma VII = biological target: T3, Plasma VII (UniProt P08709 61-466); assay: as above
T3 construct: also called Factor VII
T3 sequence (looked up): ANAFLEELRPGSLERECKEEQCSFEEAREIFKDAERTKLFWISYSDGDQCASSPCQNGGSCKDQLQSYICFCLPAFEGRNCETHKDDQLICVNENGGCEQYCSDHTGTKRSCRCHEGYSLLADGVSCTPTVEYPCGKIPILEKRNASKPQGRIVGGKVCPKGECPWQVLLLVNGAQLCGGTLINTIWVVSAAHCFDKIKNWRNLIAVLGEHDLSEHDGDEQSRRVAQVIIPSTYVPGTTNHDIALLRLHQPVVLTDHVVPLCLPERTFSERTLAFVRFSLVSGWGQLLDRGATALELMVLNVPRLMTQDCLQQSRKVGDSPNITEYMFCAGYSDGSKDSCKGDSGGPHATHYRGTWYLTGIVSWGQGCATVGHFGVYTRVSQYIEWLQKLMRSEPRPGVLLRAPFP
Experimental: as §3

[4] = biological target: T1, Recombinant human Factor IX (rhFIX, …); assay: titration calorimetry, calculated for 25 C by the van't Hoff equation, 10 mM CaCl2
Experimental: as §1

human Factor IX = human Factor IX (human, UniProt P00740 47-461); assay: cell-based or functional assay
[5] = biological target: T1, Recombinant human Factor IX (rhFIX, …); assay: SPR (BIAcore), antibody bound to immobilized protein A, Factor IX in solution
Experimental: as §2

[6] = biological target: IX K5A (Factor IX having a lysine to alanine substitution at residue 5) (UniProt P00740 47-461, K5A); assay: SPR (BiaCore 2000), BC2 coupled to the chip, 200 nM construct, 5 mM CaCl2
Experimental: as §3

[7] = biological target: T1, Recombinant human Factor IX (rhFIX, …); assay: isothermal titration calorimetry
Experimental: as §1

[8] = biological target: T1, Recombinant human Factor IX (rhFIX, …); assay: isothermal titration calorimetry, 25 C
Experimental: as §1

[9] = biological target: T1, Recombinant human Factor IX (rhFIX, …); assay: SPR (BIAcore), antibody bound to immobilized protein A, rhFIX in solution, 5 mM Ca2+
Experimental: as §2

[10] = biological target: T1, Recombinant human Factor IX (rhFIX, …); assay: biosensor (BIAcore)
Experimental: as §2

[11] = biological target: T1, Recombinant human Factor IX (rhFIX, …); assay: titration microcalorimetry, 106 uM FIX injected into 2 uM mAb
Experimental: as §1

T1 sequence (P00740 47-461 limits assumed): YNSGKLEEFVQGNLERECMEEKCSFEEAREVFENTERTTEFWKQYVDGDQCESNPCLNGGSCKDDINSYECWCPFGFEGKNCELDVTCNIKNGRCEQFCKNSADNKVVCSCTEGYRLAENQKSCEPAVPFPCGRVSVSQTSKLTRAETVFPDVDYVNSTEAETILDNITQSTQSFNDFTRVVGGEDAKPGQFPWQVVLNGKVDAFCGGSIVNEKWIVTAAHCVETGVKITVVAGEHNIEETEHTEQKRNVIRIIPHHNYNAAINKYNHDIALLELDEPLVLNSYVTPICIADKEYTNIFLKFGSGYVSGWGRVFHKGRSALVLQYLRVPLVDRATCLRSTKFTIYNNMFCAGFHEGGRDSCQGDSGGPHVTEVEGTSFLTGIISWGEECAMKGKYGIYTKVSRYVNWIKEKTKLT
Chain of human Factor IX (P00740 47-461 limits assumed): as above
Chain of IX K5A (Factor IX having a lysine to alanine substitution at residue 5) (P00740 47-461 K51A): as the sequence (P00740 47-461 limits assumed) above, with K5A counted along it

Binder	Kd [1]	Kd [2]	Molar Binding Ratio FIX/mAb [3]	Kd [4]	koff [5]	kon [5]	also measured
murine anti-Factor IX monoclonal antibody BC2 (antibody, mouse IgG2a, V domains shown, also called BC2 mAb; BC2 Antibody) VH: QIQLVQSGPELKKPGETVKISCKASGYTFTNYGMNWVKQAPGKGLKWMGWINTRNGKSTYVDDFKGRFAFSLESSASTANLQIDNLKDEDTATYFCTREGNMDGYFPFTYWGQGTLVTVSA VL: QIVLSQSPAILSASPGEKVTMTCRASSSVNYMHWYQQKPGSSPKPWIYATSNLASGVPARFSGSGSGTSYSLTISRVEAEDAATYYCQQWSINPRTFGGGTKLEIKR	20 nM	1.9 nM	1.4 FIX/mAb	10 nM	0.00091 s⁻¹	480000 M⁻¹ s⁻¹	binding result (VII-A/IX): no binding (tested: 200 nM); binding result (Plasma VII): no binding (tested: 200 nM); IC50, nM (aPTT clotting time of human plasma) (human Factor IX): ~50 nM; binding result [6]: binds
mouse-human chimeric anti-Factor IX monoclonal antibody chαFIX (antibody, V domains shown, BC2 variable regions with human constant regions; also called Chf9; F9CHHC / F9CHLC) VH: QIQLVQSGPELKKPGETVKISCKASGYTFTNYGMNWVKQAPGKGLKWMGWINTRNGKSTYVDDFKGRFAFSLESSASTANLQIDNLKDEDTATYFCTREGNMDGYFPFTYWGQGTLVTVSA VL: QIVLSQSPAILSASPGEKVTMTCRASSSVNYMHWYQQKPGSSPKPWIYATSNLASGVPARFSGSGSGTSYSLTISRVEAEDAATYYCQQWSINPRTFGGGTKLEIK	–	1.3 nM	–	–	0.0003 s⁻¹	240000 M⁻¹ s⁻¹	–
humanized anti-human Factor IX monoclonal antibody SB 249417 (antibody, V domains shown, also called F9HZHC 1-1 / F9HZLC 2-0) VH: QVQLVQSGSELKKPGASVKVSCKASGYTFTNYGMNWVRQAPGQGLKWMGWINTRNGKSTYVDDFKGRFVFSLDSSVSTAYLQISSLKADDTAVYYCTREGNMDGYFPFTYWGQGTLVTVSS VL: QIVLTQSPSSLSASVGDRVTITCRASSSVNYMHWYQQKPGKAPKPWIYATSNLASGVPSRFSGSGSGTDYTFTISSLQPEDIATYYCQQWSINPRTFGQGTKVEIKR	12 nM	1.9 nM	1.5 FIX/mAb	4 nM	–	–	Stoichiometry of Factor IX Binding [7]: 1.5 moles Factor IX : 1 mole mAb; Kd [8]: 4 nM; koff [9]: 0.00041 s⁻¹; kon [9]: 200000 M⁻¹ s⁻¹; Kd [10]: 2 nM; koff [10]: 0.0004 s⁻¹; kon [10]: 200000 M⁻¹ s⁻¹; molar binding ratio at the equivalence point [11]: ~2 FIX per mAb
humanized anti-human Factor IX monoclonal antibody SB 249415 (antibody, human IgG1, V domains shown, Human IgG1 and kappa constant regions from the vectors; also called F9HZHC 1-1 / F9HZLC 1-1) VH: QVQLVQSGSELKKPGASVKVSCKASGYTFTNYGMNWVRQAPGQGLKWMGWINTRNGKSTYVDDFKGRFVFSLDSSVSTAYLQISSLKADDTAVYYCTREGNMDGYFPFTYWGQGTLVTVSS VL: EIVLTQSPATLSLSPGERATLSCRASSSVNYMHWYQQRPGQAPKPWIYATSNLASGVPARFSGSGSGTDFTLTISSLEPEDFAVYYCQQWSINPRTFGGGTKVEIKR	7 nM	1.1 to 2.3 nM	1.7 FIX/mAb	3 nM	0.00018 s⁻¹	750000 M⁻¹ s⁻¹	–
humanized anti-human Factor IX monoclonal antibody SB 257731 (antibody, human IgG1, V domains shown, Human IgG1 and kappa constant regions from the vectors; also called F9HZHC 1-1 / F9HZLC 1-3) VH: QVQLVQSGSELKKPGASVKVSCKASGYTFTNYGMNWVRQAPGQGLKWMGWINTRNGKSTYVDDFKGRFVFSLDSSVSTAYLQISSLKADDTAVYYCTREGNMDGYFPFTYWGQGTLVTVSS VL: QIVLTQSPATLSLSPGERATLSCRASSSVNYMHWYQQRPGQAPKPWIYATSNLASGVPARFSGSGSGTDYTLTISSLEPEDFAVYYCQQWSINPRTFGGGTKVEIK	–	1.1 nM	–	–	0.00099 s⁻¹	920000 M⁻¹ s⁻¹	–
humanized anti-human Factor IX monoclonal antibody SB 257732 (antibody, human IgG1, V domains shown, Human IgG1 and kappa constant regions from the vectors; also called F9HZHC 3-0 / F9HZLC 3-0) VH: QIQLVQSGSELKKPGASVKVSCKASGYTFTNYGMNWVRQAPGQGLEWMGWINTRNGKSTYVDDFKGRFVFSLDTSVSTAYLQISSLKAEDTAVYFCTREGNMDGYFPFTYWGQGTLVTVSS VL: QIVLTQSPSSLSASVGDRVTITCRASSSVNYMHWYQQKPGKAPKPWIYATSNLASGVPSRFSGSGSGTDYTLTISSLQPEDFATYYCQQWSINPRTFGGGTKLEIKR	9 nM	1.5 nM	1.8 FIX/mAb	4 nM	0.0012 s⁻¹	1.1e+06 M⁻¹ s⁻¹	–
humanized anti-human Factor IX monoclonal antibody SB 249416 (antibody, human IgG1, V domains shown, Human IgG1 and kappa constant regions from the vectors; also called F9HZHC 1-1 / F9HZLC 1-2) VH: QVQLVQSGSELKKPGASVKVSCKASGYTFTNYGMNWVRQAPGQGLKWMGWINTRNGKSTYVDDFKGRFVFSLDSSVSTAYLQISSLKADDTAVYYCTREGNMDGYFPFTYWGQGTLVTVSS VL: EIVLTQSPATLSLSPGERATLSCRASSSVNYMHWYQQRPGQAPKPWIYATSNLASGVPARFSGSGSGTDYTLTISSLEPEDFAVYYCQQWSINPRTFGGGTKVEIKR	–	0.8 nM	–	–	0.00041 s⁻¹	520000 M⁻¹ s⁻¹	–
humanized anti-human Factor IX monoclonal antibody SB 249413 (antibody, human IgG1, V domains shown, also called F9HZHC 1-0 / F9HZLC 1-0) VH: QVQLVQSGSELKKPGASVKVSCKASGYTFTNYGMNWVRQAPGQGLEWMGWINTRNGKSTYVDDFKGRFVFSLDTSVSTAYLQISSLKADDTAVYYCAREGNMDGYFPFTYWGQGTLVTVSS VL: EIVLTQSPATLSLSPGERATLSCRASSSVNYMHWYQQRPGQAPRLLIYATSNLASGIPARFSGSGSGTDFTLTISSLEPEDFAVYYCQQWSINPRTFGGGTKVEIKR	12 nM	3.7 to 5.1 nM	1.9 FIX/mAb	6 nM	0.0028 s⁻¹	650000 M⁻¹ s⁻¹	–
